From patent US20120128704A1 (published 2012) come the findings set out here.

First the molecules themselves.
T1: survivin peptide on HLA-A*02:01 (human)
T1 peptide: LMLGEFLKL

B1: SW-Surv-66 (TCR, V domains shown)
Valpha: GENVEQHPSTLSVQEGDSAVIKCTYSDSASNYFPWYKQELGKRPQLIIDIRSNVGEKKDQRIAVTLNKTAKHFSLHITETQPEDSAVYFCAARAGNMLTFGGGTRLMVKP
Vbeta: SQTIHQWPATLVQPVGSPLSLECTVEGTSNPNLYWYRQAAGRGLQLLFYSVGIGQISSEVPQNLSASRPQDRQFILSSKKLLLSDSGFYLCAWGTGLALYEQYFGPGTRLTVT
B2: SW-Surv-22 (TCR, V domains shown)
Valpha: EDQVTQSPEALRLQEGESSSLNCSYTVSGLRGLFWYRQDPGKGPEFLFTLYSAGEEKEKERLKATLTKKESFLHITAPKPEDSATYLCAVQAYSNSGYALNFGKGTSLLVTP
Vbeta: SAVISQKPSRDICQRGTSLTIQCQVDSQVTMMFWYRQQPGQSLTLIATANQGSEATYESGFVIDKFPISRPNLTFSTLTVSNMSPEDSSIYLCSVEDSYGYTFGSGTRLTVV
B3: SW-Surv-72 (TCR, V domains shown)
Valpha: AQKITQTQPGMFVQEKEAVTLDCTYDTSDQSYGLFWYKQPSSGEMIFLIYQGSYDEQNATEGRYSLNFQKARKSANLVISASQLGDSAMYFCAMREGGGYNKLIFGAGTRLAVHP
Vbeta: SQTIHQWPATLVQPVGSPLSLECTVEGTSNPNLYWYRQAAGRGLQLLFYSVGIGQISSEVPQNLSASRPQDRQFILSSKKLLLSDSGFYLCAGQDLNTEAFFGQGTRLTVV

The target in this test is T1, survivin peptide on HLA-A*02:01. In words: multimer staining.
Protocol: Up to 1×10⁶ of cells were incubated in 50 μl volume for 25 min with 4 μg PE-labeled multimer on ice in the dark. For sorting, up to 5×10⁶ cells were incubated with 12 μg multimer in 100 μl PBS+0.5% human serum. CD8-APC antibody was then added at 1/50 for an additional 25 min. After staining cells were washed twice and either fixed in FACS buffer with 1% paraformaldehyde and analysed by flow cytometry using a FACSCalibur (BD Biosciences) or diluted in PBS+0.5% human serum with PI for sorting. 20-50×10⁶ total cells per priming culture were stained for sorting. PI-negative cells were gated and CD8⁺multimer⁺ T cells were sorted on a FACSAria cell sorter (BD Biosciences) with a 70 μm nozzle, at a rate of 15,000 events/s. […] Pentamer staining was performed according to the manufacturer's instructions.
With B1, the binding result is given as “recognises”.
As for B2, the entry is “recognises”; as for B3, “recognises”.
